Experiments:
[1] = target: rat bone PTH/PTHrP receptor clone R15B (rat); experiment: affinity from competitive radioreceptor assay on COS-7 cells expressing R15B
[2] = target: human kidney PTH/PTHrP receptor (full-length cDNA HKrk) (human); experiment: competitive radioreceptor assay on COS-7 cells; human receptor against rat receptor
[3] = target: human kidney PTH/PTHrP receptor (full-length cDNA HKrk) (human); experiment: radioreceptor assay, radiolabelled ligand (~200,000 cpm) on COS-7 cells expressing the human receptor
[4] = target: rat bone PTH/PTHrP receptor clone R15B (rat); experiment: radioreceptor assay, radiolabelled ligand (~200,000 cpm) on COS-7 cells expressing R15B
[5] = target: human kidney PTH/PTHrP receptor (full-length cDNA HKrk) (human); experiment: affinity from competitive radioreceptor assay on COS-7 cells expressing HKrk
[6] = target: human kidney PTH/PTHrP receptor (full-length cDNA HKrk) (human); experiment: affinity from competitive radioreceptor assay on COS-7 cells expressing HKrK
[7] = target: human kidney PTH/PTHrP receptor (full-length cDNA HKrk) (human); experiment: competitive radioreceptor assay on COS-7 cells; HKrK against R15B
[8] = target: opossum kidney PTH/PTHrP receptor clone OK-H (opossum); experiment: cell-based or functional assay
[9] = target: rat bone PTH/PTHrP receptor clone R15B (rat); experiment: apparent Kd, competitive radioreceptor assay on COS-7 cells expressing the rat bone receptor (FIG. 17)
[10] = target: human kidney PTH/PTHrP receptor (full-length cDNA HKrk) (human); experiment: competitive radioreceptor assay on COS-7 cells; human receptor against rat bone receptor
[11] = target: human kidney PTH/PTHrP receptor (full-length cDNA HKrk) (human); experiment: apparent Kd, competitive radioreceptor assay on COS-7 cells expressing the human receptor (FIG. 17)

Row | Kd [1] | fold lower affinity against the rat receptor [2] | specific binding [3] | specific binding [4] | Kd [5] | Kd [6] | fold higher affinity against R15B [7] | concentration of intracellular free calcium (Fura-2) [8] | Kd [9] | fold difference in apparent Kd against the rat bone PTH/PTHrP receptor [10] | Kd [11] | Substance
1 | 10 nM | 2 to 4 fold | 7.6% | 7.1% | 35 nM |  |  |  |  |  |  | [Tyr^36]PTHrP(1-36)amide (from UniProt P12272 37-72) (peptide)
2 | 45 nM |  |  |  |  | 7 nM | 7 fold |  |  |  |  | [Nle^8,18, Tyr^34]bPTH(3-34)amide (from UniProt P01268 34-65) (peptide)
3 |  |  | 10.1% | 8.1% |  |  |  | 39 nm | 10 nM | 2 fold | 5 nM | [Nle^8,18, Tyr^34]bPTH(1-34)amide (from UniProt P01268 32-65) (peptide)
4 | 2000 nM |  |  |  |  | 60 nM | 35 fold |  |  |  |  | [Nle^8,18, Tyr^34]bPTH(7-34)amide (from UniProt P01268 38-65) (peptide)
